The results in this text go back to the RNAGym collection of RNA variant scans (doi:10.1093/nar/gkz1192).

First the molecules themselves.
B1: CPEB3 Ribozyme (parent)
chain: UAACAGGGGGCCACAGCAGAAGCGUUCACGUCGCAGCCCCUGUCAGAUUCUGGUGAAUCUGCGAAUUCUGCUGUAUAUCUC

In this data set the parent is B1. As to the kind of experiment: self-cleavage, relative activity (ratio to wild type); higher = more cleavage; in vitro, sequencing. In outline: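 Barcoded CPEB3 ribozyme mutants, produced by rounds of error-prone PCR, self-cleaved while being transcribed with T7 RNA polymerase for 5 hours at 37°C and during a subsequent 15 min DNase I step before EDTA was added. Sequencing of template-switched cDNA on Illumina gave cleaved and total reads, and DNA sequencing assigned barcodes to variants. Each variant's relative activity is its cleaved/total read fraction divided by the unmutated ribozyme's fraction, averaged across three batches. A variant needed a minimum of 5 reads.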
As for UAACAGGGGGCCACAGCAGAAGCGACCACGUCGCAGCCCCUGUCAGAUUCUGGUGAAUCUGCGAAUUCUGCUGUAUAUCUC, the self-cleavage is 0.28.
Next, UAACAGGGGGCCACAGCAGAAGCGAGCACGUCGCAGCCCCUGUCAGAUUCUGGUGAAUCUGCGAAUUCUGCUGUAUAUCUC: 0.29; UAACAGGGGGCCACAGCAGAAGCGAACACGUCGCAGCCCCUGUCAGAUUCUGGUGAAUCUGCGAAUUCUGCUGUAUAUCUC: 0.39; UAACAGGGGGCCACAGCAGAAGCGAUCACGUCGCAGCCCCUGUCAGAUUCUGAUGAAUCUGCGAAUUCUGCUGUAUAUCUC: 0.28.
Next, UAACAGGGGGCCACAGCAGAAGCGAUCACGUCGCAGCCCCUGUCAGAUUCUGGUGAAUCUGCGAAUUCUGCUGUAUAUUUC: 0.27; UAACAGGGGGCCACAGCAGAAGCGAUCACGUCGCAGCCCCUGUCAGAUUCUGGUGAAUCUACGAAUUCUGCUGUAUAUCUC: 0.23.
Next, UAACAGGGGGCCACAGCAGAAGCGAUCACGUCGCAGCCCCUGUCAGAUUCUGGUGAAUCUUCGAAUUCUGCUGUAUAUCUC: 0.18.
With UAACAGGGGGCCACAGCAGAAGCGAUCACGUCGCAGCCCCUGUAAGAUUCUGGUGAAUCUGCGAAUUCUGCUGUAUAUCUC, the self-cleavage was 0.17.
In the case of UAACAGGGGGCCACAGCAGAAGCGAUCACGUCGCAGCCCCUAUCAGAUUCUGGUGAAUCUGCGAAUUCUGCUGUAUAUCUC it was 0.2.
Next, UAACAGGGGGCCACAGCAGAAGCGAUCACGUCGCAGCCCCUUUCAGAUUCUGGUGAAUCUGCGAAUUCUGCUGUAUAUCUC: 0.28; UAACAGGGGGCCACAGCAGAAGCGAUCACGUCGCAGCCCCUGUCAGAUUAUGGUGAAUCUGCGAAUUCUGCUGUAUAUCUC: 0.41.
As for UAACAGGGGGCCACAGCAGAAGCGAUCACGUCGCAGCCCCUGUCAGAUUCUGGUGAACCUGCGAAUUCUGCUGUAUAUCUC, the self-cleavage amounted to 0.29.
UAACAGGGGGCCACAGCAGAAGCGAUCACGUCGCAGCCCCUGUCAGAUUCUGGUGAAACUGCGAAUUCUGCUGUAUAUCUC: the self-cleavage came out at 0.27.
For UAACAGGGGGCCACAGCAGAAGCGAUCACGUCGCAGCCCCUGUCAGAUUCUGGUGAAUUUGCGAAUUCUGCUGUAUAUCUC, the self-cleavage came out at 0.09.
Next, UAACAGGGGGCCACAGCAGAAGCGAUCACGUCGCAGCCCCUGUCAGAUUCUGGUGAAUCUGCAAAUUCUGCUGUAUAUCUC: 0.28; UAACAGGGGGCCACAGCAGAAGCGAUCACGUCGCAGCCCCUGUCAGAUUCUGGUGAAUCUGCUAAUUCUGCUGUAUAUCUC: 0.2; UAACAGGGGGCCACAGCAGAAGCGAUCACGUCGCAGCCCCUGUCAGAUUCUGGUGAAUCUGCGAAUUCUGCUGUAUGUCUC: 0.18.
With UAACAGGGGGCCACAGCAGAAGCGAUCACGUCGCAGCCCCUGUCAGAUUCUGGUGAAUCUGCGAAUUCUGCUGUAUUUCUC, the self-cleavage came out at 0.23.
Next, UAACAGGGGGCCACAGCAGAAGCGAUCACGUCGCAGCCCCUGUCAGAUUCUGGUGAAUCUGCGAAUUCUGCUGUAUCUCUC: 0.19.
Next, UAACAGGGGGCCACAGCAGAAGCGAUCACGUCGCAGCCCCUGACAGAUUCUGGUGAAUCUGCGAAUUCUGCUGUAUAUCUC: 0.21; UAACAGGGGGCCACAGCAGAAGCGAUCACGUCGCAGCCCCUGCCAGAUUCUGGUGAAUCUGCGAAUUCUGCUGUAUAUCUC: 0.28; UAACAGGGGGCCACAGCAGAAGCGAUCACGUCGCAGCCCAUGUCAGAUUCUGGUGAAUCUGCGAAUUCUGCUGUAUAUCUC: 0.22.
In the case of UAACAGGGGGCCACAGCAGAAGCGAUUACGUCGCAGCCCCUGUCAGAUUCUGGUGAAUCUGCGAAUUCUGCUGUAUAUCUC it was 0.15.
In the case of UAACAGGGGGCCACAGCAGAAGCGAUCACGCCGCAGCCCCUGUCAGAUUCUGGUGAAUCUGCGAAUUCUGCUGUAUAUCUC, the self-cleavage is 0.17.
As to UAACAGGGGGCCACAGCAGAAGCGAUCACGACGCAGCCCCUGUCAGAUUCUGGUGAAUCUGCGAAUUCUGCUGUAUAUCUC, the self-cleavage amounted to 0.16.
As to UAACAGGGGGCCACAGCAGAAGCGAUCACGUCGCAGCCCCGGUCAGAUUCUGGUGAAUCUGCGAAUUCUGCUGUAUAUCUC, the self-cleavage was found to be 0.22.
As to UAACAGGGGGCCACAGCAGAAGCGAUCACGUCGCAGCCCCAGUCAGAUUCUGGUGAAUCUGCGAAUUCUGCUGUAUAUCUC, the self-cleavage came to 0.44.
In the case of UAACAGGGGGCCACAGCAGAAGCGAUCACGUCGCAGCCCCCGUCAGAUUCUGGUGAAUCUGCGAAUUCUGCUGUAUAUCUC, the self-cleavage came to 0.28.
In the case of UAACAGGGGGCCACAGCAGAAGCGAUCACGUCGCAGCCCCUGUCAGAUUCUGGUGAAUCUGCGACUUCUGCUGUAUAUCUC it was 0.08.
In the case of UAACAGGGGGCCACAGCAGAAGCGAUCACGUCGCAGCCCCUGUCAGAUUCUGGUGAAUCUGCGAGUUCUGCUGUAUAUCUC it was 0.28.
Next, UAACAGGGGGCCACAGCAGAAGCGAUCACGUCCCAGCCCCUGUCAGAUUCUGGUGAAUCUGCGAAUUCUGCUGUAUAUCUC: 0.19; UAACAGGGGGCCACAGCAGAAGCGAUCACGUCGCAGCCCCUGUCAGAUUCUGGUGAAUCUGAGAAUUCUGCUGUAUAUCUC: 0.16; UAACAGGGGGCCACAGCAGAAGCGAUCACGUCGCAGCCCCUGUCAGAUUCUGGUGAAUCUGGGAAUUCUGCUGUAUAUCUC: 0.39.
On to UAACAGGGGGCCACAGCAGAAGCGAUCACGUCGCAGCCCCUGUCAGAUUCUGGUGAAUCUGUGAAUUCUGCUGUAUAUCUC, for which the self-cleavage worked out at 0.19.
Next, UAACAGGGGGCCACAGCAGAAGCGAUCACGUCGCAGCCCCUGUCAGAUCCUGGUGAAUCUGCGAAUUCUGCUGUAUAUCUC: 0.22; UAACAGGGGGCCACAGCAGAAGCGAUCACGUCGCAGCCCCUGUCAGAUACUGGUGAAUCUGCGAAUUCUGCUGUAUAUCUC: 0.19; UAACAGGGGGCCACAGCAGAAGCGAUCACGUCGCAGCCCCUGUCAGAUGCUGGUGAAUCUGCGAAUUCUGCUGUAUAUCUC: 0.19.
For UAACAGGGGGCCACAGCAGAAGCGAUCACGUCGCAGCCCCUGUCAGAUUCUCGUGAAUCUGCGAAUUCUGCUGUAUAUCUC, the self-cleavage stood at 0.27.
Consider UAACAGGGGGCCACAGCAGAAGCGAUCACGUCGCAGCCCCUGUCAGAUUCUAGUGAAUCUGCGAAUUCUGCUGUAUAUCUC, for which the self-cleavage is 0.22.
Take UAACAGGGGGCCACAGCAGAAGCGAUCACGUCGCAGCCCCUGUCAGAUUCUGGUGAAUCUGCGAAUUAUGCUGUAUAUCUC: the self-cleavage was determined as 0.19.
With UAACAGGGGGCCACAGCAGAAGCGAUCACGUCGCAGCCCCUGUCAAAUUCUGGUGAAUCUGCGAAUUCUGCUGUAUAUCUC, the self-cleavage amounted to 0.15.
Take UAACAGGGGGCCACAGCAGAAGCGAUCACGUCGCAGCCCCUGUCAGACUCUGGUGAAUCUGCGAAUUCUGCUGUAUAUCUC: the self-cleavage turned out to be 0.3.
Next, UAACAGGGGGCCACAGCAGAAGCGAUCACGUCGCAGCCCCUGUCAGAAUCUGGUGAAUCUGCGAAUUCUGCUGUAUAUCUC: 0.32; UAACAGGGGGCCACAGCAGAAGCGAUCACGUCGCAGCCCCUGUCAGAUUCUGGCGAAUCUGCGAAUUCUGCUGUAUAUCUC: 0.27.
Take UAACAGGGGGCCACAGCAGAAGCGAUCACGUCGCAGCCCCUGUCAGAUUCUGGGGAAUCUGCGAAUUCUGCUGUAUAUCUC: the self-cleavage is 0.2.
In the case of UAACAGGGGGCCACAGCAGAAGCGAUCACGUCGCAGCCCCUGUCAGAUUCUGGAGAAUCUGCGAAUUCUGCUGUAUAUCUC, the self-cleavage came to 0.26.
For UAACAGGGGGCCACAGCAGAAGCGAUCACGUCGAAGCCCCUGUCAGAUUCUGGUGAAUCUGCGAAUUCUGCUGUAUAUCUC, the self-cleavage was determined as 0.4.
In the case of UAACAGGGGGCCACAGCAGAAGCGAUCACGUCGUAGCCCCUGUCAGAUUCUGGUGAAUCUGCGAAUUCUGCUGUAUAUCUC it was 0.56.
Take UAACAGGGGGCCACAGCAGAAGCGAUCACGUCGCAGCCCCUGUCAGAUUCUGGUGAAUCUGCGAAUUCUGCUGUAUAUCUU: the self-cleavage worked out at 0.57.
Next, UAACAGGGGGCCACAGCAGAAGCGAUCACGUCGCAGCCCCUGUCAGAUUCAGGUGAAUCUGCGAAUUCUGCUGUAUAUCUC: 0.33.
In the case of UAACAGGGGGCCACAGCAGAAGCGAUCACGUCGCAGCCCCUGUCAGAUUCCGGUGAAUCUGCGAAUUCUGCUGUAUAUCUC it was 0.23.
In the case of UAACAGGGGGCCACAGCAGAAGCGAUCACGUCGCAGCCCCUGUCAGAUUCUGGUGAAUCUGCGAAUUCUGCUGUUUAUCUC it was 0.32; in that of UAACAGGGGGCCACAGCAGAAGCGAUCACGUCGCAGCCCCUGUCAGAUUCUGGUGAAUCUGCGAAUUCUGCUGUGUAUCUC, 0.23.
In the case of UAACAGGGGGCCACAGCAGAAGCGAUCACGUAGCAGCCCCUGUCAGAUUCUGGUGAAUCUGCGAAUUCUGCUGUAUAUCUC, the self-cleavage was found to be 0.16.
Next, UAACAGGGGGCCACAGCAGAAGCGAUCACGUUGCAGCCCCUGUCAGAUUCUGGUGAAUCUGCGAAUUCUGCUGUAUAUCUC: 0.38; UAACAGGGGGCCACAGCAGAAGCGAUCAUGUCGCAGCCCCUGUCAGAUUCUGGUGAAUCUGCGAAUUCUGCUGUAUAUCUC: 0.22; UAACAGGGGGCCACAGCAGAAGCGAUCAGGUCGCAGCCCCUGUCAGAUUCUGGUGAAUCUGCGAAUUCUGCUGUAUAUCUC: 0.25.
For the variant UAACAGGGGGCCACAGCAGAAGCGAUCACGUCGCAGCCCCUGUCAGAUUCUGGUGAAUCUGCGAAUUCUGCUAUAUAUCUC, the self-cleavage is 0.36.
As for UAACAGGGGGCCACAGCAGAAGCGAUCACGUCGCAGCCCCUGUCAGAUUCUGGUGAAUCUGCGAAUUCUUCUGUAUAUCUC, the self-cleavage is 0.06.
In the case of UAACAGGGGGCCACAGCAGAAGCGAUCACGUCGCAGCCCCUGUCAGAUUCUGGUGAAUCUGCGAAUUCUCCUGUAUAUCUC it was 0.07; in that of UAACAGGGGGCCACAGCAGAAGCGAUCACGUCGCAGCCCCUGUCAGAUUCUGGUGAAUCUGCGUAUUCUGCUGUAUAUCUC, 0.19; in that of UAACAGGGGGCCACAGCAGAAGCGAUCACGUCGCAGCCCCUGUCAGAUUCUGGUGAAUCUGCGGAUUCUGCUGUAUAUCUC, 0.33.
In the case of UAACAGGGGGCCACAGCAGAAGCGAUCACGUCGCAGCACCUGUCAGAUUCUGGUGAAUCUGCGAAUUCUGCUGUAUAUCUC it was 0.18.
In the case of UAACAGGGGGCCACAGCAGAAGCGAUCACGUCGCAGCUCCUGUCAGAUUCUGGUGAAUCUGCGAAUUCUGCUGUAUAUCUC, the self-cleavage worked out at 0.23.
In the case of UAACAGGGGGCCACAGCAGAAGCGAUCACGUCGCAGCCCCUGUCAGAUUCUGGUGAUUCUGCGAAUUCUGCUGUAUAUCUC, the self-cleavage was found to be 0.18.
As for UAACAGGGGGCCACAGCAGAAGCGAUCACGUCGCAGUCCCUGUCAGAUUCUGGUGAAUCUGCGAAUUCUGCUGUAUAUCUC, the self-cleavage was found to be 0.34.
In the case of UAACAGGGGGCCACAGCAGAAGCGAUCACCUCGCAGCCCCUGUCAGAUUCUGGUGAAUCUGCGAAUUCUGCUGUAUAUCUC it was 0.26; in that of UAACAGGGGGCCACAGCAGAAGCGAUCACAUCGCAGCCCCUGUCAGAUUCUGGUGAAUCUGCGAAUUCUGCUGUAUAUCUC, 0.13.
